Data as given in PMC5454392, “Selective BET bromodomain inhibition as an antifungal therapeutic strategy” (Nature Communications, 2017).
Numbered stars: 1 amine (or outer) side, 2 acyl side, 3 side chain; on linkers, the order of the positions; unused ones are H or OH. Square brackets hold non-standard residues; d marks the D form. Ends that are not written are not given here. Arg(Me2a) = CN(C)C(=N)NCCC[C@H](N)C(=O)O; Kac = CC(=O)NCCCC[C@H](N[*:1])C(=O)[*:2]; Lys(Me3) = C[N+](C)(C)CCCC[C@H](N)C(=O)O; Arg(Me2s) = CN=C(NC)NCCC[C@H](N)C(=O)O; pT = C[C@@H](OP(=O)(O)O)[C@H](N)C(=O)O; Lys(Me2) = CN(C)CCCC[C@H](N)C(=O)O; pS = N[C@@H](COP(=O)(O)O)C(=O)O; Lys(Me) = CNCCCC[C@H](N)C(=O)O; Me2a = not defined here; me2a = not defined here

T1: CaBdf1 BD2 (GST-tagged, wild-type) (Candida albicans (strain SC5314 / ATCC …, UniProt Q5A4W8))
T1 chain: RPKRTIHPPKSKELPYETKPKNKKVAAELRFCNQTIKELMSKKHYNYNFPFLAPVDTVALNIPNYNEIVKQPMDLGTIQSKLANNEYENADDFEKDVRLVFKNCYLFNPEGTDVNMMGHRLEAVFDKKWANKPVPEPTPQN

T2: CaBdf1 BD1 (GST-tagged, wild-type) (Candida albicans (strain SC5314 / ATCC …, UniProt Q5A4W8))
T2 chain: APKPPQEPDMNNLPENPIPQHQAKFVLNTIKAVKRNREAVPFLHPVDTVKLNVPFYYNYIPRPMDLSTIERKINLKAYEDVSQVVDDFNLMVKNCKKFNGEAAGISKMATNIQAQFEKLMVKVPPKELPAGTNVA

B1: c-myc tag (peptide)
chain: EQKLISEEDLA
modifications: histone peptide post-translational modifications (acetyl, methyl, phospho, citrulline) listed in columns 4-7 and embedded in the sequence text; N-terminus free or acetylated in column 8

Molecular target: T1, CaBdf1 BD2 (GST-tagged, wild-type)
Experiment: histone peptide array (Active Motif MODified), 1 uM GST-tagged bromodomain, anti-GST detection, normalized mean intensity

Binder	binding score
PDPAK(Ac)SAPAPKK(Ac)GSKKAVT	0.00555
SGRGKGGKGLGKGGAKRHR (S G R G K G G Kac G L G Kac G G A K R H R)	0.0418
PRKQLATKAARK(Ac)SAPATGG	0.0307
PRKQLATKAAR(Me2a)K(Me3)[pS]APATGG (reading uncertain)	0.00296
A[Arg(Me2s)]T[Lys(Me2)]QTA[Arg(Me2a)][Lys(Me)]STGGKAPRKQ	0.0037
B1	1
ARTKQTARKSTGGKAPRKQ (A Rme2s T Kac Q T A Rme2s Kme1 S T G G K A P R K Q)	0.00407
PDPAK(Ac)SAPAPKK(Ac)G[pS]K(Ac)KAVT	0.232
SGRGKGGKGLGKGGAKRHR (S G R G Kac G G K G L G K G G A K R H R)	0.0241
PRKQLATKAARKSAPATGG (P R K Q L A T K A A Rme2a Kme2 S A P A T G G)	0.00555
PRKQLATKAARK(Me)SAPATGG	0.00333
PDPAKSAPAPKKGSK(Ac)KAVT	0.00481
RKSAPATGGVKKPHRYRPG (R K S A P A T G G V Kme1 K P H R Y R P G) [H3 26-45]	0.00481
ARTKQTARKSTGGKAPRKQ (A Rme2a T Kme3 Q T A R K S T G G K A P R K Q)	0.00259
ART[Kac]QTA[Arg(Me2a)][Lys(Me2)]STGGKAPRKQ	0.00555
ARTKQTARKSTGGKAPRKQ (A R T K Q T A R Kme3 S T G G K A P R K Q)	0.00222
ARTKQTARKSTGGKAPRKQ (A R T K Q T A R Kme3 S pT G G K A P R K Q)	0.0037
SGRGKGGKGLGKGGAKRHR (S G R G Kac G G Kac G L G K G G A K R H R)	0.0326
[pS]GRGK(Ac)QGGKARAK(Ac)AKSRSS	0.0148
PRKQLATKAA[Arg(Me2a)]KSAPATGG	0.00148
ARTKQTARKSTGGKAPRKQ (A Rme2a T Kme1 Q T A Rme2s Kme3 S T G G K A P R K Q)	0.00629
AR[pT]KQTARKSTGGKAPRKQ	0.00259

Binder	binding score
PDPAKSAPAPKKGSKKAVT (not fully specified)	0.00074
A[Arg(Me2s)][pT]K(Ac)QTARKSTGGKAPRKQ	0.00333
PRKQLATKAA[Arg(Me2s)]K(Ac)[pS]APATGG	0.00629
ARTKQTARKSTGGKAPRKQ (A Rme2s T Kme2 Q T A Rme2s K S T G G K A P R K Q)	0.00629
ARTKQTARKSTGGKAPRKQ (A R T K Q T A R Kme2 pS T G G K A P R K Q)	0.00333
ARTK(Ac)QTARKSTGGKAPRKQ	0.00222
ARTK(Me)QTAR(me2a)K(Me)STGGKAPRKQ (reading uncertain)	0.00407
AR(Me2a)TK(Me2)QTARKSTGGKAPRKQ (reading uncertain)	0.0037
ARTKQTARKSTGGKAPRKQ (A R T Kme1 Q T A Rme2a Kme3 S T G G K A P R K Q)	0.00333
PRKQLATKAAR(Me2a)K(Me2)[pS]APATGG (reading uncertain)	0.00555
ARTKQTARKSTGGKAPRKQ (A Rme2s T Kme2 Q T A Rme2s Kme2 S T G G K A P R K Q)	0.00407
ARTKQTARKSTGGKAPRKQ (A R T K Q T A R Kme1 S pT G G K A P R K Q)	0.0037
[pS]GRGKQGGKARAKAKSRSS	0.00592
ARTKQTARKSTGGKAPRKQ (A Rme2a T Kme3 Q T A Rme2s Kme1 S T G G K A P R K Q)	0.00407
ARTKQTARKSTGGKAPRKQ (A Rme2a T Kme2 Q T A Rme2a Kme2 S T G G K A P R K Q)	0.00555
ARTK(Me)QTARKSTGGKAPRKQ	0.00185
AR[pT]K(Me)QTARKSTGGKAPRKQ	0.00296
PRKQLATKAAR(Me2s)K(Me2)[pS]APATGG	0.00074
A[Arg(Me2a)]TK(Ac)QTA[Arg(Me2s)][Lys(Me3)]STGGKAPRKQ	0.0122
ARTKQTARKSTGGKAPRKQ (A R T Kac Q T A Rme2a Kme1 S T G G K A P R K Q)	0.00555
ARTKQTARKSTGGKAPRKQ (A R T K Q T A Rme2s Kme2 pS T G G K A P R K Q)	0.00333
ARTKQTARKSTGGKAPRKQ (A Rme2a T Kme1 Q T A Rme2s Kme2 S T G G K A P R K Q)	0.00222

Molecular target: T2, CaBdf1 BD1 (GST-tagged, wild-type)
Experiment: as above

Binder	binding score
PDPAK(Ac)SAPAPKK(Ac)GSKKAVT	0.017
SGRGKGGKGLGKGGAKRHR (S G R G K G G Kac G L G Kac G G A K R H R)	0.0707
PRKQLATKAARK(Ac)SAPATGG	0.0138
PRKQLATKAAR(Me2a)K(Me3)[pS]APATGG (reading uncertain)	0.00218
A[Arg(Me2s)]T[Lys(Me2)]QTA[Arg(Me2a)][Lys(Me)]STGGKAPRKQ	0.00544
B1	1.01
ARTKQTARKSTGGKAPRKQ (A Rme2s T Kac Q T A Rme2s Kme1 S T G G K A P R K Q)	0.00653
PDPAK(Ac)SAPAPKK(Ac)G[pS]K(Ac)KAVT	0.0982
SGRGKGGKGLGKGGAKRHR (S G R G Kac G G K G L G K G G A K R H R)	0.0185
PRKQLATKAARKSAPATGG (P R K Q L A T K A A Rme2a Kme2 S A P A T G G)	0.00363
PRKQLATKAARK(Me)SAPATGG	0.00798
PDPAKSAPAPKKGSK(Ac)KAVT	0.0199
RKSAPATGGVKKPHRYRPG (R K S A P A T G G V Kme1 K P H R Y R P G) [H3 26-45]	0.00616
ARTKQTARKSTGGKAPRKQ (A Rme2a T Kme3 Q T A R K S T G G K A P R K Q)	0.0109
ART[Kac]QTA[Arg(Me2a)][Lys(Me2)]STGGKAPRKQ	0.00761
ARTKQTARKSTGGKAPRKQ (A R T K Q T A R Kme3 S T G G K A P R K Q)	0.0029
ARTKQTARKSTGGKAPRKQ (A R T K Q T A R Kme3 S pT G G K A P R K Q)	0.00363
SGRGKGGKGLGKGGAKRHR (S G R G Kac G G Kac G L G K G G A K R H R)	0.0294
[pS]GRGK(Ac)QGGKARAK(Ac)AKSRSS	0.0964
PRKQLATKAA[Arg(Me2a)]KSAPATGG	0.00326
ARTKQTARKSTGGKAPRKQ (A Rme2a T Kme1 Q T A Rme2s Kme3 S T G G K A P R K Q)	0.00471
AR[pT]KQTARKSTGGKAPRKQ	0

Binder	binding score
PDPAKSAPAPKKGSKKAVT (not fully specified)	0.00435
A[Arg(Me2s)][pT]K(Ac)QTARKSTGGKAPRKQ	0.00761
PRKQLATKAA[Arg(Me2s)]K(Ac)[pS]APATGG	0.00145
ARTKQTARKSTGGKAPRKQ (A Rme2s T Kme2 Q T A Rme2s K S T G G K A P R K Q)	0.00181
ARTKQTARKSTGGKAPRKQ (A R T K Q T A R Kme2 pS T G G K A P R K Q)	0.00326
ARTK(Ac)QTARKSTGGKAPRKQ	0.00363
ARTK(Me)QTAR(me2a)K(Me)STGGKAPRKQ (reading uncertain)	0.00508
AR(Me2a)TK(Me2)QTARKSTGGKAPRKQ (reading uncertain)	0.00109
ARTKQTARKSTGGKAPRKQ (A R T Kme1 Q T A Rme2a Kme3 S T G G K A P R K Q)	0.00254
PRKQLATKAAR(Me2a)K(Me2)[pS]APATGG (reading uncertain)	0.00145
ARTKQTARKSTGGKAPRKQ (A Rme2s T Kme2 Q T A Rme2s Kme2 S T G G K A P R K Q)	0.00435
ARTKQTARKSTGGKAPRKQ (A R T K Q T A R Kme1 S pT G G K A P R K Q)	0.00326
[pS]GRGKQGGKARAKAKSRSS	0.0131
ARTKQTARKSTGGKAPRKQ (A Rme2a T Kme3 Q T A Rme2s Kme1 S T G G K A P R K Q)	0.00326
ARTKQTARKSTGGKAPRKQ (A Rme2a T Kme2 Q T A Rme2a Kme2 S T G G K A P R K Q)	0.00399
ARTK(Me)QTARKSTGGKAPRKQ	0.000725
AR[pT]K(Me)QTARKSTGGKAPRKQ	0.00471
PRKQLATKAAR(Me2s)K(Me2)[pS]APATGG	0.00363
A[Arg(Me2a)]TK(Ac)QTA[Arg(Me2s)][Lys(Me3)]STGGKAPRKQ	0.00653
ARTKQTARKSTGGKAPRKQ (A R T Kac Q T A Rme2a Kme1 S T G G K A P R K Q)	0.00834
ARTKQTARKSTGGKAPRKQ (A R T K Q T A Rme2s Kme2 pS T G G K A P R K Q)	0.00363
ARTKQTARKSTGGKAPRKQ (A Rme2a T Kme1 Q T A Rme2s Kme2 S T G G K A P R K Q)	0.00218
